Measured values reported in article PMC6421407, “Activation of GCN2 by the ribosomal P-stalk” (Proceedings of the National Academy of Sciences of the …, 2019).

Legend:
[1] = target: human general control nonderepressible 2 (GCN2), full-length, StrepII-tagged (human) (UniProt Q9P2K8)
[2] = target: the molecule itself; assay: SEC-MALS; purified GCN2 in solution; 392 kDa measured against 384 kDa theoretical for a homodimer

Row | EC50 of stimulation of eIF2α phosphorylation by GCN2, titration of ribosomes [1] [nM] | fold stimulation of eIF2α phosphorylation by GCN2, titration of ribosomes [1] [fold] | Molecule | stoichiometry N [2]
1 | 25 | 20 | ribosomes purified from rabbit reticulocyte lysate (from UniProt G1SPK4 1-318; P19943 1-44; G1TT27 1-257) (complex) | 
2 |  |  | human general control nonderepressible 2 (GCN2), full-length, StrepII-tagged (enzyme, UniProt Q9P2K8 1-1649, looked up, General control nonderepressible 2 (GCN2), human, full length; Homodimer by SEC-MALS (392 kDa measured, 384 kDa theoretical); also called construct A; full-length GCN2) MAGGRGAPGRGRDEPPESYPQRQDHELQALEAIYGADFQDLRPDACGPVKEPPEINLVLYPQGLTGEEVYVKVDLRVKCPPTYPDVVPEIELKNAKGLSNESVNLLKSRLEELAKKHCGEVMIFELAYHVQSFLSEHNKPPPKSFHEEMLERRAQEEQQRLLEAKRKEEQEQREILHEIQRRKEEIKEEKKRKEMAKQERLEIASLSNQDHTSKKDPGGHRTAAILHGGSPDFVGNGKHRANSSGRSRRERQYSVCNSEDSPGSCEILYFNMGSPDQLMVHKGKCIGSDEQLGKLVYNALETATGGFVLLYEWVLQWQKKMGPFLTSQEKEKIDKCKKQIQGTETEFNSLVKLSHPNVVRYLAMNLKEQDDSIVVDILVEHISGVSLAAHLSHSGPIPVHQLRRYTAQLLSGLDYLHSNSVVHKVLSASNVLVDAEGTVKITDYSISKRLADICKEDVFEQTRVRFSDNALPYKTGKKGDVWRLGLLLLSLSQGQECGEYPVTIPSDLPADFQDFLKKCVCLDDKERWSPQQLLKHSFINPQPKMPLVEQSPEDSEGQDYVETVIPSNRLPSAAFFSETQRQFSRYFIEFEELQLLGKGAFGAVIKVQNKLDGCCYAVKRIPINPASRQFRRIKGEVTLLSRLHHENIVRYYNAWIERHERPAGPGTPPPDSGPLAKDDRAARGQPASDTDGLDSVEAAAPPPILSSSVEWSTSGERSASARFPATGPGSSDDEDDDEDEHGGVFSQSFLPASDSESDIIFDNEDENSKSQNQDEDCNEKNGCHESEPSVTTEAVHYLYIQMEYCEKSTLRDTIDQGLYRDTVRLWRLFREILDGLAYIHEKGMIHRDLKPVNIFLDSDDHVKIGDFGLATDHLAFSADSKQDDQTGDLIKSDPSGHLTGMVGTALYVSPEVQGSTKSAYNQKVDLFSLGIIFFEMSYHPMVTASERIFVLNQLRDPTSPKFPEDFDDGEHAKQKSVISWLLNHDPAKRPTATELLKSELLPPPQMEESELHEVLHHTLTNVDGKAYRTMMAQIFSQRISPAIDYTYDSDILKGNFSIRTAKMQQHVCETIIRIFKRHGAVQLCTPLLLPRNRQIYEHNEAALFMDHSGMLVMLPFDLRIPFARYVARNNILNLKRYCIERVFRPRKLDRFHPKELLECAFDIVTSTTNSFLPTAEIIYTIYEIIQEFPALQERNYSIYLNHTMLLKAILLHCGIPEDKLSQVYIILYDAVTEKLTRREVEAKFCNLSLSSNSLCRLYKFIEQKGDLQDLMPTINSLIKQKTGIAQLVKYGLKDLEEVVGLLKKLGIKLQVLINLGLVYKVQQHNGIIFQFVAFIKRRQRAVPEILAAGGRYDLLIPQFRGPQALGPVPTAIGVSIAIDKISAAVLNMEESVTISSCDLLVVSVGQMSMSRAINLTQKLWTAGITAEIMYDWSQSQEELQEYCRHHEITYVALVSDKEGSHVKVKSFEKERQTEKRVLETELVDHVLQKLRTKVTDERNGREASDNLAVQNLKGSFSNASGLFEIHGATVVPIVSVLAPEKLSASTRRRYETQVQTRLQTSLANLHQKSSEIEILAVDLPKETILQFLSLEWDADEQAFNTTVKQLLSRLPKQRYLKLVCDEIYNIKVEKKVSVLFLYSYRDDYYRILF | 2
